The text below walks through data of patent publication US6150168.

In experiment [1] the target is ASOR receptor (asialoglycoprotein receptor) on primary mouse hepatocytes (mouse) (UniProt P34927).
Experiment [2] has the same target. Conditions: scale: % conversion of phenylalanine to tyrosine.
For experiment [3] the target is unchanged. The source holds these as a separate data set.
Experiment [4] deals with adenovirus receptor on primary mouse hepatocytes (mouse).
The target in experiment [5] is ASOR receptor on HepG2 cells.
Experiment [6] deals with ASOR receptor (asialoglycoprotein receptor) on primary mouse hepatocytes (mouse) (UniProt P34927). This is another data set of the same source.

In turn, “ASOR/poly-L-lysine conjugate (ASOR/PLL conjugate)” came in with a canine factor IX (cFIX) level in supernatants of primary mouse hepatocytes after delivery of pCMV/cFIX with the high EDC ADV-PLL/DNA complex (µg/10^6 cells/24 hours) in experiment [1] of 0.79. The phenylalanine hydroxylase activity (percent conversion of phenylalanine to tyrosine) in PAH deficient mouse hepatocytes after delivery of CMV/hPAH DNA in complex form with adenovirus in experiment [2] was found to be 26. For the same substance, in experiment [3], the percentage of cells expressing β-gal, ASOR-PLL/DNA complexes with free adenovirus, in the presence of a 1000-fold excess of free ASOR is < 2 % of cells; the percentage of cells staining blue, complex containing adenovirus conjugated with PLL at high EDC concentrations, in the presence of a 1000-fold excess of free ASOR is < 30 % of cells; the percentage of cells staining positive for beta-gal, complex containing adenovirus conjugated with PLL at low EDC concentrations, in the presence of a 1000-fold excess of free ASOR was 80 % of cells.

In the case of “adenovirus (d1312) conjugated with PLL at low EDC concentrations”, the percentage of cells staining positive for beta-gal after delivery with the low EDC ADV-PLL/DNA complex, in the presence of a 1000-fold excess of free ASOR in experiment [4] is 80 % of cells.

As to asialoorosomucoid (ASOR) (ligand), the internalized ^3 H counts after a 2 hour incubation (dose-response of ^3 H-ASOR uptake) (molecules/cell) in experiment [5] was 150000; in experiment [6] it was 320000.
